5 molecules from patent publication US20220411506A1 (SUZHOU GALAXY BIOPHARMA, published 2022) can be followed below.

Numbering of substitutions follows the chain as printed.

Experiment [1] addresses T1, hCTLA4-hFc (human, UniProt P16410 36-161).
T1 construct: also called hCTLA4-Fc protein; biotinylated hCTLA4-hFc; not shown: hFc (human Fc)
T1 sequence (looked up): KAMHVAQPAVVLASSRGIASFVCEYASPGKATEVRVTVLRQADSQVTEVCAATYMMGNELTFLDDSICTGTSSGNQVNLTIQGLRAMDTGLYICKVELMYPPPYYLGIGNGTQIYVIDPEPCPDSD
Nature of the experiment: blocking ELISA, coated antibody, biotin hCTLA4-hFc, competitor hCD86-Fc. How it is done: (§1) The purified antibodies were coated on 96-well plates (Corning, catalog #9018) followed by incubation overnight at 4° C., and were blocked with 5% skimmed milk powder (Oxoid, catalog #LP0031B) for 2 hours at 37° C. […] The plates were washed with PBST and incubated with HRP-labeled streptavidin (BD, catalog #554066) for 1 hour at room temperature. The plates were washed and developed by adding TMB.

In experiment [2] the target is T1, hCTLA4-hFc. Nature of the experiment: ELISA, coated hCTLA4-hFc. On the procedure:
ELISA was used for detecting the binding of purified antibodies to CTLA4-hFc. […] The plates were washed with PBST (PBS containing 0.05% of Tween-20) three times, and were blocked with 5% skimmed milk powder (Oxoid, catalog #LP0031B) for 2 hours at 37° C. The plates were washed three times with PBST and were incubated for 1 hour at room temperature with antibodies to be detected. The plates were washed three times and incubated for 1 hour at room temperature with 1/5000 diluted HRP-labeled goat anti-mouse IgG secondary antibodies (Invitrogen, catalog #31432). The plates were washed with PBST and were developed by adding TMB.

In experiment [3] the target is T1, hCTLA4-hFc. Nature of the experiment: blocking ELISA, coated antibody, biotin hCTLA4-hFc, competitor hCD80-Fc. How it is done: as §1
The target of experiment [4] is T2, biotin-labeled mouse CTLA4-His (SinoBiological, catalog #50503-M08H) (mouse, UniProt P09793 36-162, biotin-labeled (site not stated)).
T2 construct: not shown: His tag
Nature of the experiment: ELISA, coated antibody, biotin mouse CTLA4-His. On the procedure:
(§2) Species cross reactions of the purified antibodies were detected using ELISA. The quantified purified antibodies were coated on 96-well plates (Corning, catalog #9018) followed by incubation overnight at 4° C., and were blocked with 5% skimmed milk powder (Oxoid, catalog #LP0031B) for 2 hours at 37° C. The biotin-labeled mouse CTLA4-His (SinoBiological, catalog #50503-M08H) or monkey CTLA4-Fc (SinoBiological, catalog #90213-C02H) was added to the plates and incubated for 1 hour at room temperature. The plates were washed three times with PBST and incubated with 1/1000 diluted HRP-labeled streptavidin (BD, catalog #554066) for 1 hour at room temperature. The plates were washed and developed by adding TMB.

The target in experiment [5] is T3, monkey CTLA4-Fc (SinoBiological, catalog #90213-C02H) (monkey, UniProt G7PL88 36-161, Probably biotin-labeled (detected with HRP-streptavidin). Fused to an Fc that is not given in letters.).
T3 construct: Detected with streptavidin, so read as biotin-labeled like the mouse protein
T3 sequence: T1 sequence (looked up) with S14N, I18T, L106M
Nature of the experiment: ELISA, coated antibody, monkey CTLA4-Fc. How it is done:
as §2

Experiment [6] concerns the target T1, hCTLA4-hFc. Nature of the experiment: competition ELISA: biotin-labeled CTLA4-hFc pre-incubated with graded chimeric antibody, captured on coated Ipilimumab (2 ug/mL). On the procedure:
The plates were washed three times with PBST and incubated with 1/1000 diluted HRP-labeled streptavidin (BD, catalog #554066) for 1 hour at room temperature. The plates were washed and developed by adding TMB.

Experiment [7] addresses T4, hCTLA4-mFc fusion protein (human, UniProt P16410 36-161).
T4 construct: Captured on AMC (anti-mouse Fc capture) sensors in the Octet assay; not shown: mFc (mouse Fc)
T4 sequence (looked up): T1 sequence (looked up)
Nature of the experiment: BLI (Octet-96), CTLA4-mFc on AMC sensor, antibody 3-200 nM, 1:1 global fit. How it is done: The kinetic constants (kassoc and kdissoc) of binding of the antibody and the antigen were measured using the biomolecular interaction system Octet-96 (Pall Life Sciences, S-000959), and the equilibrium binding constant KD was further calculated. […] Specifically, AMC sensors were pre-wet in the buffer (PBS containing 0.02% Tween-20 and 0.1% BSA) for 10 minutes and then equilibrated in CTLA4-mFc sample buffer for 5 minutes to such that the CTLA4-mFc proteins were coupled to the surfaces of sensors. The CTLA4-mFc-coupled AMC sensors were first equilibrated in the buffer for 2 minutes and then incubated for 5 minutes in buffer containing different concentrations of antibody (3-200 nM) to measure the binding of antibodies to the CTLA4-mFc protein. Finally, the antigen and antibody-bound sensors were repositioned in the sample buffer and waited for 10 minutes to measure the dissociation of antibodies from the CTLA4-mFc proteins. The measured data were globally fitted using a 1:1 model to obtain kinetic constants of binding and dissociation. On this basis, an equilibrium binding constant KD was further obtained.

Experiment [8] has as its target T5, human CTLA4 on the cell surface (human, UniProt P16410 36-223).
T5 construct: whole, on cells; also called CTLA4 on the surface of human T cells
T5 sequence (looked up): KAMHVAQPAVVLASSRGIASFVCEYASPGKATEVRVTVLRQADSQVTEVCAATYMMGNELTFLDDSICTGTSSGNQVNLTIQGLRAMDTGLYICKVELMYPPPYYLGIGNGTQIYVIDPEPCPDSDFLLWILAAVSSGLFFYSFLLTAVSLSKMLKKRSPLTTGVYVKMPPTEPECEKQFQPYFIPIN
Nature of the experiment: FACS on 293T-hCTLA4 cells. On the procedure: The purified antibodies to be detected were added to wells at a certain concentration (50 μL/well) and incubated for 1 hour at 4° C. The cells were washed three times with buffer and were incubated for 0.5 hour at 4° C. with PE-labeled fluorescent secondary antibodies. The cells were washed three times with FACS buffer and re-suspended to 200 μL/well. The fluorescence signals were detected using Attune Nxt flow cytometer (Thermo Fisher).

B1: murine anti-CTLA4 monoclonal antibody 19C5-G11-A7-G5 (antibody, V domains shown)
VH: EVQLQQSGTVLARPGASVKMSCKASGYSFTSYWIHWVKQRPGQGLEWIGAFYPGNSDTNYNQNFKGKAKLTAVTSASTAYMELSSLTNEDSAVYYCTYYYRSSYAMDNWGQGTSVTVSS
VL: DIQMNQSPSSLSASLGDTITITCHASQNINDWLSWYQQKPGNIPKLLIYKASNLHTGVPSRFSGSGSGTGFTLTISSLQPEDIATYYCQQGQSYPLTFGSGTKLEIK
notes: Mouse hybridoma antibody purified on Protein A
For B1, the values for the half-maximal inhibitory concentration (IC50) in experiment [1] and in experiment [3] were 3.15 µg/mL and 0.0357 µg/mL, respectively. The same molecule registered a 50% effective concentration (EC50) in experiment [2] of 0.036 nM. In addition, the entries for the “ELISA (OD)” value in experiment [4] and in experiment [5] were 0.06 OD and 0.64 OD, respectively.

B2: human-mouse CTLA4 chimeric antibody 9B8-H2-B6-G5 (antibody, V domains shown)
VH: QVQLQQPGSELVRPGASVKLSCKASGYTFTNYWVHWVKQRPGQGLEWIGNIFPGSDTSNYDEKFISKATLTVDTSSSAAYMQLNSLTSEDSAVYYCARLAYFTNYGGAMDYWGRGTSVTVSS
VL: DIVLTQSPASLVVSLGQRATISCRASKSVSTSAYNYMHWYQQKPGQPPKLLIYLASNLESGVPARFSGSGSGTDFTLNVHPVEEEDAATYYCQLSRELPYTFGGGTKLEIK
On to B2, for which, in experiment [6], the “IC50 (read off the curve)” value is approximately 0.2 µg/mL. Moreover, in experiment [7], binding was characterised by a dissociation constant (Kd) of 0.0868 nM.

B3: murine anti-CTLA4 monoclonal antibody 9B8-H2-B6-G5 (antibody, V domains shown)
VH: B2 VH
VL: B2 VL
notes: as for B1
Consider B3, for which the IC50 in experiment [1] is 1.08 µg/mL; in experiment [3], 0.00292 µg/mL. For the same molecule, the EC50 in experiment [2] was found to be 0.025 nM; in experiment [8], 1.08 nM. The results for the “ELISA (OD)” value in experiment [4] and in experiment [5] were 0.06 OD and 0.37 OD, respectively.

B4: human-mouse CTLA4 chimeric antibody 4H9-G5-D5-B1 (antibody, V domains shown)
VH: EVKLDETGGGLVQPGRSMKLSCVVSGFTFSDNWMNWVRQSPEKGLEWVAQIRNKPYNFETYYSDSVKGRFTISRDDSKSTVYLQMNNLRAEDMGVYYCTGGFTYWGQGTLVTVSA
VL: DIQMTQSPASLSASVGETVTITCGASENIYGGLNWYQRKQGKSPQLLIYGATNLAEGMSSRFSGSGSGRQYSLKISSLHPDDVATYYCQNVLSSPWTFGGGTKLEIK
In the case of B4, in experiment [6], the “IC50 (read off the curve)” value was approximately 0.03 µg/mL. The molecule also gave a Kd in experiment [7] of less than 0.001 nM.

B5: murine anti-CTLA4 monoclonal antibody 4H9-G5-D5-B1 (antibody, V domains shown)
VH: B4 VH
VL: B4 VL
notes: as for B1
On to B5, for which the IC50 in experiment [1] turned out to be 7.24 µg/mL; in experiment [3], 0.0691 µg/mL. Moreover, the EC50 was 0.023 nM in experiment [2] and 1.35 nM in experiment [8]. The “ELISA (OD)” value in experiment [4] is 0.05 OD; in experiment [5] it was 2.79 OD.
